{"source": "the DeepSol protein solubility set"}
{"experiment": "soluble on expression in E. coli; label from the status in PepcDB or PDB records"}
{"sequence": "MTEEFYIGTYTKRISRGIYRVSVDTTTPKLMDCEWLASAGSPTYIAKSNAKRLYVINKKETDGQTHGGLIIYDMSEDKPRAIQQLLDLGSSPAYVAVDEDRQLVYTANYHTAAVDVYAINPDGTLKRTDQVIDQDPVGPAPEQADGPHPHFADLTPDNRLVVCDLGSDRVYVYDVSATGKLSAVSHLDLPAGYGPRHIVFDAKKGVAYLVGELSSNVATLSYDTATGTFTVKTIVSTIPDDWTAHNGAAAIRLSADGKFVYVSNRGNNSLAVFASDEAGQLTLVQRISTEGDFPRDFNWTANQRLVLVVNQNSDNASLFERDAQSGKLTLVQKDFMVPEGVSVLPAKLEHHHHHH", "soluble on expression in E. coli": "soluble"}
{"sequence": "MTEGKRLQQMELPQMKSIWIDEDQEMEKLYGFQVRQRFMNGPSTDSDEDADEDLGIVLVDSKKLALPNKNNIKLPPLPNYMTINPNINSNHKSLTNKKKNFLGMFKKKDLLSRRHGSAKTAKQSSISTPFDFHHISHANGKREDNPLESHEEKHDVESLVKFTSLAPQPRPDSNVSSKYSNVVMNDSSRIVSSSTIATTMDSHHDGNETNNTPNGNKQLDSPTDLEMTLEDLRNYTFPSVLGDSVSEKTNPSSPSVSSFSGKFKPRELSALHTPELGNCFNVDQSLNSPGNRISVDDVLKFYYQCSETSTPRNT", "soluble on expression in E. coli": "soluble"}
{"sequence": "MTEGLAVELAGLRSFSIVMPAYNVVTQRGERIFRETLESIAASCRYLQQHFPYTPEGELILISDGSTDRTCDVAMAGWPNAVPLQLVGLPTNVGIAAARNIGVRLAKGEVIFFCDADDLYRPEHLFLALSVLNQPLPEPYAPAYFGAVRTGVYCRDRLHPYWHKSLEQTLVLNLAVRREVHEFIGGFPEDEVFRQFRYGAEDVAYAYWLHQFCHTARLEQRTVEYRRFPNSVFDRQLKKFQAAPGTVADDLDEGDRQQEAQIRQIMATRLQELQAKAAQGVALEHHHHHH", "soluble on expression in E. coli": "not soluble"}
{"sequence": "MTEKKFIQDPWAKMTTRNGLAGDEVISALQKSIRRGKEKDACEFAYEMYITSPQFEEKLWRRLLAISVEDIGMGNPIAALMINNLNMMRKEFQYNESDRAMFFFHAIRYLCGSEKDRSSDLLKNIVIKSFAMGYVPEIPDIALDKHTTRGQEMGRGSEHFLHEASKVIPQAKVENDYKEQYEEIIKKYDPNHVVPSTFVFNPWQVLEHHHHHH", "soluble on expression in E. coli": "not soluble"}
{"sequence": "MTENAEKFLWGVATSAYQIEGATQEDGRGPSIWDAFAQRPGAIRDGSTGEPACDHYRRYEEDIALMQSLGVRAYRFSVAWPRILPEGRGRINPKGLAFYDRLVDRLLASGITPFLTLYHWDLPLALEERGGWRSRETAFAFAEYAEAVARALADRVPFFATLNEPWCSAFLGHWTGEHAPGLRNLEAALRAAHHLLLGHGLAVEALRAAGARRVGIVLNFAPAYGEDPEAVDVADRYHNRFFLDPILGKGYPESPFRDPPPVPILSRDLELVARPLDFLGVNYYAPVRVAPGTGTLPVRYLPPEGPATAMGWEVYPEGLYHLLKRLGREVPWPLYVTENGAAYPDLWTGEAVVEDPERVAYLEAHVEAALRAREEGVDLRGYFVWSLMDNFEWAFGYTRRFGLYYVDFPSQRRIPKRSALWYRERIARAQT", "soluble on expression in E. coli": "soluble"}
{"sequence": "MTESFAELFEASQANLAKLKPGSIVTGTVVEVRGDVVVINAGLKSEGIVPIEQFRNDAGEIDVGVGDQVKVALDSIENGFGETVLSREKAKRAMVWDELEEALEKNETITGRISGKVKGGFTVDIKDVRAFLPGSLVDVRPVRDPAYLEGKELEFKLIKLDRKRNNVVVSRRAVVESEHSEEREQLMDKLQEGAILKGVVKNLTDYGAFVDLGGIDGLLHITDMAWKRVRHPSEVVNVGDELDVRVLKFDRERNRVSLGLKQLGEDPWDNIARRYPANSRVFGKVSNVTDYGAFVEIEPGVEGLVHVSEMDWTNKNVNPSKVVQVGDEVEVMVLDVDEERRRISLGMKQVAANPWETFAATHKKNDKVSGQIKSITDFGIFIGLDGGIDGLVHLSDISWNTTGEDVVRNYKKGDTLEAVVLAVDPERERISLGVKQLEQDPFGQYMASNPKGSKVEGVVREVDAKGATIDLADGIEGYVAARDIANERVDDATQHLKVGDKIEAKFVGMDRKGRTLQLSIKAKDDAEMRETLEDYQSASASGGMTQLGALLRAQLNNNKSELEHHHHHH", "soluble on expression in E. coli": "not soluble"}
{"sequence": "MTESSLDLGVIGNCSFGALVDRQARVVWSCLPAFDGDPAFCSLLSPKGEGGDFAVELEDFESSEQHYLPNTAVLRTVLRDSKGGEVEVIDFAPRWRNNGRFYRPVSIIRQIRPLAGNPRIVVRARPLADWGGRLEHHHHHH", "soluble on expression in E. coli": "not soluble"}
{"sequence": "MTESTSLDELFKDRYSQNDERYKKMSETGFEPVIVVHPWEPRRNNNYRNRGNFGGGRGGGYQHRDNSNRGGWVPRGGGQRGGYRGGWQDRGGHRGGGGWQDRGGQRQPYRGGDRRRQYND", "soluble on expression in E. coli": "soluble"}
{"sequence": "MTETIKCIGCGVEIQTEDKNEVGYAPASSLEKEQVICQRCFRLKHYNEIQDVSLTDDDFLRILNGIGKSDALVVKIVDIFDFNGSWLPGLHRFVGNNKVLLVGNKADLIPKSVKHDKVKHWMRYSAKQLGLKPEDVFLISAAKGQGIAELADAIEYYRGGKDVYVVGCTNVGKSTFINRMIKEFSDETENVITTSHFPGTTLDLIDIPLDEESSLYDTPGIINHHQMAHYVGKQSLKLITPTKEIKPMVFQLNEEQTLFFSGLARFDYVSGGRRAFTCHFSNRLTIHRTKLEKADELYKNHAGDLLSPPTPEELENMPELVKYEFNIREPKTDVVFSGLGWVTVNEPGAKIVAHVPKGVSVSLRKSLILEHHHHHH", "soluble on expression in E. coli": "not soluble"}
{"sequence": "MTETRKKPDPIDVYVGTRIRLRRNILGLTQEKLGEKLGITFQQIQKYEKGTNRIGASRLQAIAEIMDVPVSYFFDKGVGTQQVEGFAESDNDFMDFCSSSEGIQLMRAFTNISDSKVRRKIIDLAKALSEEEDLTNKL", "soluble on expression in E. coli": "not soluble"}
{"sequence": "MTETTYENLTRRIDRISAEMREISEENGLRILSLLESQTKSIKDELSRLLWIELPELNESHKIEAVSKSTTGMFFAPGIFEMDAMRKAFFKRQAKHFFENEAEQQAYIEHAEKEYLEATVTLKDILFNSKNGTQKANKSCLIEKFEEAMQ", "soluble on expression in E. coli": "not soluble"}
{"sequence": "MTEVLIKVDLNQPVTENEQIHNRWHPDIPMACWVKPGEDFILETYDWTAGAIKNNDDASDVRDVDLSTVHYLSGPVGVHGAEPGDLLVVDLLDIGARADSQWGFNGFFSRQNGGGFLTDHFPMAQKAIWDFKGMMTSSRHIPGVEFAGLIHPGLIGCLPDHKMLAEWNRREQELIDTDPGRVPPLANPPHAKTAHLGKMKGGPERDLAAATGARTVPPREHGGNCDIKDLSRGSKVFFPVYVDGAGLSVGDLHFSQGDGEITFCGAIEMAGWVHMRVELIKGGMAKYGIKNPVFKPSPIVPTYNKYLIFEGISVDESGQQHYLDVNVAYRQACLNAINYMTKFGYSPAQGYALLGSAPVQGHISGIVDIPNACATLWLPTEIFKFDINPNADGPTRFIDGSIDLPIAPDKLEHHHHHH", "soluble on expression in E. coli": "not soluble"}
{"sequence": "MTEYGGGEVYLLDLDSVVDGSALRMISSGGLRGRVLIHSALVDYLYSEAKRGRSAGYAGLAELSRLMDAGVGDVEIVVVEDDARVQPRDEGELKSVLRRYALRVGATLVTSDPVQARAARALGVSVLFTGRSRTGRIRIEE", "soluble on expression in E. coli": "not soluble"}
{"sequence": "MTFKDLRDFIAQLEQRGALKRIQVPISPVLEMTEVCDRTLRAKGPALLFEKPTGFDMPVLGNLFGTPERVALGMGAEDVGALREIGKLLAQLKEPEPPKGLKDAWAKLPMYRKVLSMAPKVLKDAPCQEVVEEGEDVDLGRLPVQTCWPGDVGPLITWGLTVTRGPNKERQNLGIYRQQVIGRNKVIMRWLSHRGGALDYREWCQKHPGQPYPVAVALGADPATILGAVTPVPDTLSEYAFAGLLRGHRTELVKCRGSDLQVPASAEIVLEGVIHPGEMADEGPYGDHTGYYNEVDRFPVFTVERVTRRQKPIYHSTYTGRPPDEPAILGVALNEVFVPILQKQFPEIVDFYLPPEGCSYRMAVVTMKKQYPGHAKRVMLGVWSFLRQFMYTKFVIVTDDDIDARDWNDVIWAITTRMDPKRDTVMIDNTPIDYLDFASPVSGLGSKMGLDATHKWPGETSREWGRAIVKDEAVTRRIDALWSSLGIDAAALEHHHHHH", "soluble on expression in E. coli": "not soluble"}
{"sequence": "MTFKSATGSGQQGGSSGTSAGNPDSLKQDKISKSGDSLSVVDTGQGDDTHYANLPPSITPTSDPNALSFTNKNNAQRVQLFLRGLLDSIPVLVNKSGQDDLEHHHHHH", "soluble on expression in E. coli": "not soluble"}
{"sequence": "MTFQETISAYIQERYQITPDFPFKKHPDYLVFRHPRNAKWFALIMPLDAQLLGATENKQLTILTVKLAPELIALLKNQPGYFPAYHMNKEHWLSLSEEIPLSQVFSFIDESYQRSYLEHHHHHH", "soluble on expression in E. coli": "soluble"}
